Experiment [1] has as its target T1, hTM4SF5EC2-C cyclic peptide (human, cyclic: disulfide bond between the cysteines that replace glycine 133 and valine 156 (3rd and 26th residue of the peptide); biotinylated for SPR).
T1 construct: Chemically synthesized (Peptron); also called cyclic TM4SF5 peptide; TM4SF5 cyclic peptide
T1 peptide: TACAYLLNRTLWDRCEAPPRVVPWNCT
The experiment can be described thus: SPR (Reichert SPR 7500DC), biotinylated peptide on streptavidin chip, antibody injected, 25 C. Here is the method: (§1) The affinities of anti-hTM4SF5 monoclonal antibody (mEC2-C) and humanized anti-TM4SF5 antibody (hEC2-C-2) binding to hTM4SF5EC2-C cyclic peptide were measured at 25° C. using the Reichert SPR system. Biotinylated peptides were captured from each flowing cell surface of a streptoavidin-coated sensor chip. Biotin was used as a negative control. Anti-hTM4SF5 monoclonal antibody (mEC2-C) and humanized anti-TM4SF5 antibody were injected at a flow rate of […]. Data were evaluated using Reichert SPR evaluation software.

In experiment [2] the target is T2, hTM4SF5R2-3 peptide (human).
T2 peptide: NRTLWDRCEAPPRV
The experiment can be described thus: ELISA on coated hTM4SF5R2-3, purified antibody titrated. Background: In an ELISA, binding on a coated surface is turned into a signal by an enzyme label.

In experiment [3] the target is T1, hTM4SF5EC2-C cyclic peptide. The experiment can be described thus: ELISA on coated hTM4SF5EC2-C, purified antibody titrated.
Experiment [4] has the same target. The experiment can be described thus: SPR (Reichert SPR 7500DC), biotinylated cyclic peptide on streptavidin chip, antibody 0 to 80 nM, 1:1 binding with mass transfer. Here is the method: FIG. 6 represents purification and characterization of mouse anti-TM4SF5 monoclonal antibodies recognizing TM4SF5 cyclic peptides. (A) Hydrops abdominis was producted from BALB/c mice by injecting i.p. into the abdominal cavity with hybridoma clone (2A10 clone) derived from FIG. 5. Anti-TM4SF5 monoclonal antibody was purified using protein-A agarose column chromatography and the purified antibody was identified by SDS-PAGE and Coomassie blue staining. (B) The isotype was determined by obtaining titration curves using purified monoclonal antibodies. (C) A binding affinity of monoclonal antibody for cyclic peptide hTM4SF5EC2-C was determined by using ELISA. (D) A binding affinity of monoclonal antibody for cyclic peptide […] was determined by using Reichert Analytical Instruments SPR 7500DC (Reichert). Biotinylated peptides were immobilized on streptavidin chip and the amount of antibody was increased. Kinetic parameters of binding reactions are expressed under sensorgrams.
The affinities of anti-hTM4SF5 monoclonal antibody (mEC2-C) and humanized anti-TM4SF5 antibody (hEC2-C-2) binding to hTM4SF5EC2-C cyclic peptide were measured at 25° C. using the Reichert SPR system. Biotinylated peptides were captured from each flowing cell surface of a streptoavidin-coated sensor chip. Biotin was used as a negative control. […] Data were evaluated using Reichert SPR evaluation software.

Experiment [5] deals with T3, Myc-tagged recombinant human TM4SF5 protein (human, UniProt O14894 1-197).
T3 construct: whole, on cells; tested in cell lysates by Western blot and immunoprecipitation, not on whole cells; also called hTM4SF5; recombinant TM4SF5 protein; not shown: C-terminal Myc-His tag of the vector pcDNA-3.1/Myc-His(-)B
T3 sequence (looked up): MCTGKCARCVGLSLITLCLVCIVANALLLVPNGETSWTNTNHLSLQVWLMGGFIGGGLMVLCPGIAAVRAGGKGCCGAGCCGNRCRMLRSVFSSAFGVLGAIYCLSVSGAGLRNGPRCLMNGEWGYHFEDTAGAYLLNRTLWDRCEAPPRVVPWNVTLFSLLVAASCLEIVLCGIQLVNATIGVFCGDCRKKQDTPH
The experiment can be described thus: Western blot of HEK 293F-EV and HEK 293F-TM4SF5 lysates with hybridoma culture supernatant.

The target in experiment [6] is T2, hTM4SF5R2-3 peptide. The experiment can be described thus: ELISA on coated hTM4SF5R2-3, purified antibody titrated.
Experiment [7] has as its target T1, hTM4SF5EC2-C cyclic peptide. The experiment can be described thus: ELISA on coated hTM4SF5EC2-C, purified antibody titrated.
The target is the same in experiment [8]. The experiment can be described thus: SPR (Reichert SPR 7500DC), cyclic peptide hTM4SF5EC2-C on chip, antibody 0 to 3.75 nM, 1:1 binding with mass transfer. The method, then:
as §1

Experiment [9] shares this target. The experiment can be described thus: SPR, Kd of hEC2-C-2 against Kd of mEC2-C. The method, then:
as §1
In general terms: SPR reads the build-up and loss of mass on a sensor chip optically.

Where two headings read alike, the source gives them in different places.

B1: anti-TM4SF5 monoclonal antibody mEC2-C (antibody, V domains shown)
VH: QVQLEESGPGLVAPSQSLSIICTVSGFSLTSYGVTWVRQPPGKGLEWLGVIWSDGSTNYQSALISRLTISRDNSKSQAFLKLNSLQTDDTATYYCARPSNYYYFDYWGQGTTLTVSS
VL: DIVMTQSPSSLAVSAGERVTLSCKSSQSLFDRRTRKTYLAWYQQKPGQSPKLLISWASTRESGVPDRFTGSGSGTDFTLTISSVQAEDLAVYYCKQSYNLFTFGGGTKLEIK
notes: also called mouse anti-TM4SF5 monoclonal antibody; anti-hTM4SF5 monoclonal antibody
As usually defined, the Kd is the free concentration of one partner at which half of the binding sites on the other are occupied at equilibrium, for simple one-to-one binding. High values mean a looser complex, low ones a tighter complex. As usually defined, the koff is a measure of how fast the partners let go of each other. High values mean fast dissociation, low ones slow dissociation. The EC50 (read off the curve) is the midpoint of the concentration-response curve. A low value points to higher potency in that assay. As a reminder, the kon is the rate constant with which the complex forms. A low value points to slower complex formation. Turning to B1, in experiment [1], the Kd is at most 480 pM and the koff is at most 1e-05 s⁻¹. Besides, in the experiment with hTM4SF5R2-3 peptide [2], the binding result is reported as “no binding (tested: 1e-6 M)”. The “EC50 (read off the curve)” value in [3] was about 3000 pM. Also, in [4], binding was put at a Kd of 488 pM and the kon amounted to 20500 M⁻¹ s⁻¹. The binding result in experiment [5] was “binds”.

B2: humanized anti-TM4SF5 antibody hEC2-C-2 (antibody, V domains shown)
VH: EVQLVESGGGLVQPGGSLRLSCAASGFSLTSYGVTWVRQAPGKGLEWLGVIWSDGSTNYQSALISRLTISRDNSKNTAYLQMNSLRAEDTAVYYCARPSNYYYFDYWGQGTLVTVSS
VL: DIQMTQSPSSLSASVGDRVTITCKSSQSLFDRRTRKTYLAWYQQKPGKAPKLLISWASTRESGVPSRFSGSGSGTDFTLTISSLQPEDFATYYCKQSYNLFTFGQGTKVEIK
notes: hEC2-C-2 is the clone that was expressed and tested; also called hEC2-C-2 Ab; hEC2-C-2 IgG
Take B2: in experiment [1], the Kd is about 22.7 pM. The binding result in the experiment with hTM4SF5R2-3 peptide [6] is given as “no binding (tested: 1e-6 M)”. Further, the “EC50 (read off the curve)” value in experiment [7] was about 100 pM. For the same molecule, in experiment [8], the Kd is 22.7 pM, the koff is 1e-05 s⁻¹ and the kon was found to be 440000 M⁻¹ s⁻¹. In addition, the “fold lower Kd than the original mouse monoclonal antibody mEC2-C” value in experiment [9] is about 20 fold.

Values taken from patent US20190231872A1 (INDUSTRY ACADEMIC COOPERATION FOUNDATION HALLYM UNIVERSITY, published 2019).
